Here are results for 21 variants from the RNAGym collection of RNA variant scans (doi:10.1073/pnas.2313332121).

B1: TPR t1 (parent)
chain: GACCAAUCUGCCCUCAGAGCUCGAGAACAUCUUCGGAUGCAGAGGAGGCAGGCUUCGGUGGCGCGAUAGCGCCAACGUCCUCAACCUCCAAUGCAUCCCACCACAUGAUGAUGCCUGAAGAGCCUUGGUUUUUUG

In the series the parent is B1. The series can be described thus: polymerase ribozyme fitness, log enrichment relative to wild type (log ratio); higher = more active; in vitro selection for triplet polymerase activity. In outline:
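Genotype fitness is the logarithm of its enrichment divided by wild-type enrichment, using inverse-variance-weighted averages of replicates. That logarithm is base 2. Enrichment was measured by Illumina sequencing of input and output libraries from one triplicate in vitro selection round, with frozen incubation at −7 °C, on PCR-built, transcribed mutant libraries of each subunit of a heterodimeric triplet polymerase ribozyme, retaining genotypes with ≥10 input reads and ≥1 read per output.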
On to GACCAAUCUGCUCUCAGAGCUCGAGAACAUCUUCGGAUGCAGAGGAGGCAGGAUUCGCUGGCGCGAUAGCGCCAACGUCCUCAACCUCCAAUGCAUCCCACCACAUGAUGAUGCCUGAUGAGCCUUGGUUUUUUG [C12U C53A G58C A119U], for which the “polymerase ribozyme fitness (log ratio)” value was -0.505.
GACCAAUCUGCUCUCAGAGCUCGAGAACAUCUUCGGAUGCAGAGGGGGCAGGCUUAGGUGGCGCGAUAGCGCCAACGUCCUCAACCUCCAAUGCAUCCCACCACUUGAUGAUGCCUGAAGAGCCUUGGUUUUUUG [C12U A46G C56A A105U]: the “polymerase ribozyme fitness (log ratio)” value was -1.73.
In the case of GACCAAUCUGCUCUCAGAGCUCGAGAACAUCUUGGGAUGCAGAGGAGGCAGGCUUCGGUGGCGCGAUAGCGCCAACGUCCUCAACCUCCAAUGCAUCCCACCACAUGAUGAUGCGUGAAGAGCCUUGGUUUUUUG [C12U C34G C115G], the “polymerase ribozyme fitness (log ratio)” value is -6.11.
Regarding GACCAAUCUGCUUUCAGAGCUCGAGAACAUCUUCGGAUGCAGGGGAGGCAGGCUUCGGUGACGCGAUAGCGCCAACGUCCUCAACCUCCAAUGCAUCCCACCACAUGAUGAUGCCUGAAGAGCCUUGGUGUUUUG [C12U C13U A43G G61A U130G], the “polymerase ribozyme fitness (log ratio)” value is -2.17.
To GACCAAUCUGCUUUCAGAGCUCGAGAACAUCUUCGGAUGCAGAGGAGGCAGGCUUCGGUGGCGCGAUAGUCCCAACGUCCUCAACCUCCAAUGCAACCCACCACAUGAUGAGGCCUGAAGAGCCUUGGUUCUUUG [C12U C13U C70U G71C U96A U112G U131C] belongs -4; to GACCAAUCUGCUCUCAGAGCUCGAGAACUUCUUCGGAUGCAGAGGAGGCAGGCUUGGGUGGCGCGAUAGCGCCAACGUCCUCAACCGCCAAUGCAUCCCACCACAUGAUGAUGCCUGAAGAGCCUUGGUUUUUUG [C12U A29U C56G U87G], -2.63; to GACCAAUCUGCUCUCAGAGCUCGAGAACAUCUUCGGAUGUAGAGGAGGCAGGCUUCGGUGGCGCGAUAGCGCCAACGUCCUCAACCUCCAAUGCAUCCCACCACAUGAUGAUGCCUGAAGAGCCUUGGUUUUUUG [C12U C40U], -0.543.
With GACCAAUCUGCUCUCAGAGCUCGAGAACAUCUUCGGAUGCAGAGGAGGCAGGCUUCGGUGGCGCGAUAGCGCCAACGUCCUCAUCCUCCAAUGCAUCCCACCACAUGAUGAUGCCUGAAGAGCCUUGGUUGUUUG [C12U A84U U131G], the “polymerase ribozyme fitness (log ratio)” value is -0.996.
To GACCAAUCUGCUCUAAGAGCUCGAGAACAUCUUCGGAUGCAGAGGAGGCAGGCUUCGGUGGCGCGAUAGCGCCAACGUCCUCAACCUCCAAUGCAUCCCACCACAUGAUGAUGCCUGAAGAGCCGUGGUUUUAUG [C12U C15A U125G U133A] belongs -1.18.
To GACCAAUCUGCUCUCAGAGUUCGAGAACAUCUUCGGAUGCAGUGGAGGCAGGCUUCGGUGGCGCGAUAGCGUCAACGUCCUAAACCUCCAAUGCAUCCCACCACAUGAUGAAGGCUGAAGAGCCUUGGUUUUUUG [C12U C20U A43U C72U C82A U112A C114G] belongs -2.38; to GACCAAUCUGCUCUCAGAGCUCGAGAACAUCUUCGGAUGCAGAGGAGGCAGGCUUCGGUGGCGCGAUAGCGCCAACGUCCUCUACCUCCAAUGCAUCCCACCACAUGAUGAUGCCUGAAGAGCCUUGGUUUUUUG [C12U A83U], 0.364; to GACCAAUCUGCUCUCAGAGCUCGAGAGCAUCUUCGGAUGCAGAGGAGGCAGGCUUCGGUGGCGCGAUAACGCCAACGUCCUCAACCUACAAUGCAUCCCACCACAUGAUGAUGCCUGAAGAGCCGUGGUUUUUUG [C12U A27G G69A C88A U125G], -3.8.
The figure for GACCAAUCUGCUCUCAGAGCUCGAGAACGUCUUCGGAUGCAGAGGAGGCAGGCUUCGGUGGCGCGAUAGCGCCAACGUCCUCAACCUCCAACGAAUCCCACCACAUGAUGAUGCCUGAAGAGCCUUGGUUUUUUG [C12U A29G U92C C94A] is -3.95; for GACCAAUCUGCUCUCAGAGAUCGAGAACAUCUUCGGAUGCAGAGGAGGCAGGCUUCGGUGGCGCGAUAGCGCCACCGUCCUCAACCUCCAAUGCAUCCCACCACAUGAUGAUGACUUAAGAGCCUUGGUUUUUUG [C12U C20A A75C C114A G117U] it is -5.53.
Turning to GACCAAUCUGCUCUCAGAGCUCGAGAACAUCUUCGGAUGCAGAGGAGGCUGGCUUGGGUGGCGCGAUAGCGCCAACGUCCUCAACCUCCAAUGCAUCCCACCACAUGAUGAUGCCUGAAGAGCCUUGGUUUUUUG [C12U A50U C56G], the “polymerase ribozyme fitness (log ratio)” value was -1.24.
Regarding GACCAAUCUGCUCUCAGAGCUCGAGAACAUCUUCGGAUGCAGAGGAGGCAGGCUUCGGUGGCGCGAUGGCGCCAACGUCCUCAACCUCCAAUGCAUCCCACCACAUGAUGAUGCCUGAAGAGCCUUGGUUUUUUG [C12U A68G], the “polymerase ribozyme fitness (log ratio)” value is -1.94.
To GACCAAUCUGCUCUCAGAGCUCGAGAACAUCUUCGGAUGCUGAGGAGGCAGGCUUCGGUGGCGCGAUAGCGCCAACGUCCUCAACCUCCAAUGCAUCCCACCACAUGAUGAUGCCUGAAGAGCCUUGGUUUUUUG [C12U A41U] belongs -0.786.
The figure for GACCAAUCUGCUCUCAGAGAUCGAGAACAUCUUCGGAUGCAGAGGAGGCAGGCUUCGGUGGCGCGAUAGCGCCUACGUCCUCAACCUCCAAUGCAUCCCACCACAUGAUGAUGCCUGAAGAGCCUUGAUUUUUUG [C12U C20A A74U G128A] is -5.15.
Consider GACCAAUCUGCUCUCAGAGUUCGAGAACAUCUUCGGAUGCAGAGGAGGCAGGCUUCGGUGGCGCGAUAGCGCCAACGUCCUCAACCUCCAUUGCAUCCCACCACAUGAUGAUGCCGGAAGAGCCUUGGUUUUUUG [C12U C20U A91U U116G], for which the “polymerase ribozyme fitness (log ratio)” value was -4.44.
Consider GACCAAUCUGCUCUGAGAGCUCGAGAACAUCUUCGGAUACAGAGGAGGCAGGCUUAGGUGGCGCGAUAGCGCCAACGUCCUCAACCUCCAAUGCAUCCCACCACAUGAUGAUGCCUGAAAAGCCUUGGUUUUUUG [C12U C15G G39A C56A G120A], for which the “polymerase ribozyme fitness (log ratio)” value turned out to be 0.312.
For the variant GACCAAUCUGCUCUUAGAGCUCGAGAACAUCUUCGGAUGCAGAGGAGGAAGGCUUCGGUGGCGCGAUAGCGCCAACGUCCUCAACCUCCAAUGCAUCCCAUCACAUGAUGAUGCCUGAAGAGCCUUGGUUUUGUG [C12U C15U C49A C101U U133G], the “polymerase ribozyme fitness (log ratio)” value was -1.18.
